# Measurements as given in paper PMC8372783.
# Experiments:
# thrombin [1] = molecular target: T1, thrombin (human, UniProt P00734;P00734 328-363;364-622); test: affinity probe capillary electrophoresis
# thrombin [2] = molecular target: T1, thrombin; test: affinity probe capillary electrophoresis; remark: listed apart in the source
# thrombin [3] = molecular target: T1, thrombin; test: fluorescence anisotropy
# thrombin [4] = molecular target: T1, thrombin; test: fluorescence anisotropy; remark: listed apart in the source
# thrombin [5] = molecular target: T1, thrombin; test: fluorescence anisotropy; remark: listed apart in the source
# thrombin [6] = molecular target: T1, thrombin; test: fluorescence anisotropy; remark: listed apart in the source
# thrombin [7] = molecular target: T1, thrombin; test: fluorescence anisotropy; remark: listed apart in the source
# thrombin [8] = molecular target: T1, thrombin; test: fluorescence anisotropy; remark: listed apart in the source
# thrombin [9] = molecular target: T1, thrombin; test: affinity probe capillary electrophoresis; remark: listed apart in the source
Binder,apparent K (half saturation) (thrombin [1]) [nM],apparent K (half saturation) (thrombin [2]) [nM],apparent K (half saturation) (thrombin [3]) [nM],apparent K (half saturation) (thrombin [4]) [nM],apparent K (half saturation) (thrombin [5]) [nM],apparent K (half saturation) (thrombin [6]) [nM],apparent K (half saturation) (thrombin [7]) [nM],apparent K (half saturation) (thrombin [8]) [nM],Kd (thrombin [9]) [nM]
GGTTGGTGTGGTTGG (structured_DNA) [15mer Fl (FAM)],60.9 ± 5.3,49.2 ± 1.2,,,,,,,
"GGTTGGTGTGGTTGG (structured_DNA) [15mer, Texas Red]",,,25 ± 1.5,29.7 ± 1.1,51.8 ± 2.9,30.4 ± 2.6,27.3 ± 1.6,23.7 ± 1.1,4.5 ± 1.4
